Patent US10654915B2, “Antibodies useful in passive influenza immunization” (priority 2011, dated 2020)

B1: MAB8 (antibody)
VH: EVQLVESGGGLVKPGGSLRLSCAASGFTFSTYTMSWVRQAPGQGLEWVSSITRTSSNIYYADSVEGRFTISRDNAKNSLYLQMHSLRVEDTAVYYCARISGVVGPVPFDYWGQGTLITVSS
light: DIQMTQSPSSLSASVGDRVTITCRASQTISKYLNWYQQKPGRAPKLLIYSASSLQSGVPSRFTGSGSGTDFTLTITSLQPEDFATYYCQQSYRPSQITFGPGTKVDIK
modifications: CHAIN (1)...(121) MAB8 heavy chain sequence of variable domain; CHAIN (1)...(108) MAB8 light chain sequence

Legend:
[1] = test system: H1N1 Influenza A/Ca/04/09; test: Comparison to treatment with Tamiflu in infected mice; assay type: in vivo
[2] = biological target: H3 HA; assay type: binding, influenza A; conditions: read-out: affinity
[3] = biological target: H5 HA; assay type: binding, influenza A; conditions: read-out: affinity
[4] = test system: H5N1; assay type: cell-based, influenza A
[5] = test system: H1N1; assay type: cell-based, influenza A
[6] = test system: H7N3; assay type: cell-based, influenza A
[7] = test system: H9N2; assay type: cell-based, influenza A
[8] = biological target: H1 HA; assay type: binding, influenza A; conditions: read-out: affinity

Molecule | survival ([1]; 10 mice per group, treatment from Day +1, to Day 14) | weight attained, of the original weight ([1]; by Day 14) | day at which decline in weight was reversed ([1]; treatment from Day +1) | Kd [2] | Kd [3] | neutralization of infection (in words) [4] | neutralization of infection (in words) [5] | neutralization of infection (in words) [6] | neutralization of infection (in words) [7] | Kd [8]
CCOC(=O)C1=C[C@@H](OC(CC)CC)[C@H](NC(C)=O)[C@@H](N)C1 [Tamiflu, oseltamivir phosphate, reference compound] | all but two mice were dead before eight days post infection | 92% | ≤ 6 days |  |  |  |  |  |  | 
B1 |  |  |  | 16 nM | 0.2 nM | does not neutralize infection | does not neutralize infection | does not neutralize infection | does not neutralize infection | 9 nM
